B1: HMGB1: Recombinant full length human HMGB1, GST fusion system, SEQ ID NO:18; recombinant rat HMGB1 used in some experiments (protein)
chain: MGKGDPKKPTGKMSSYAFFVQTCREEHKKKHPDASVNFSEFSKKCSERWKTMSAKEKGKFEDMAKADKARYEREMKTYIPPKGETKKKFKDPNAPKRLPSAFFLFCSEYRPKIKGEHPGLSIGDVAKKLGEMWNNTAADDKQPYEKKAAKLKEKYEKDIAAYRAKGKPDAAKKGVVKAEKSKKKKEEEEDEEDEEDEEEEEDEEDEEDEEEDDDDE
modifications: GST fusion
notes: recombinant rat HMGB1 used in some experiments
B2: A box: Human HMGB1 mutant containing only the A box, SEQ ID NO:21 (A box SEQ ID NO:22) (protein)
chain: MGKGDPKKPTGKMSSYAFFVQTCREEHKKKHPDASVNFSEFSKKCSERWKTMSAKEKGKFEDMAKADKARYEREMKTYIPPKGET
B3: B box: Human HMGB1 mutant containing only the B box, SEQ ID NO:20 (protein)
chain: FKDPNAPKRLPSAFFLFCSEYRPKIKGEHPGLSIGDVAKKLGEMWNNTAADDKQPYEKKAAKLKEKYEKDIAAY

Test system: RAW 264.7 cells
Experiment: TNF release from RAW 264.7 cells (L929 cytotoxicity bioassay)
Type: cell-based, murine
Conditions: for TNF release: 1 μg/ml protein, RAW 264.7 cells
Procedure: Murine macrophage-like RAW 264.7 cells (American Type Culture Collection, Rockville, Md.) were cultured in RPMI 1640 medium (Life Technologies, Grand Island N.Y.) supplemented with 10% fetal bovine serum (Gemini, Catabasas, Calif.), penicillin and streptomycin (Life Technologies) and were used at 90% confluence in serum-free Opti-MEM I medium (Life Technologies, Grand Island, N.Y.). […] Polymyxin B was not used in experiments of synthetic peptide studies.
TNF release was measured by a standard murine fibroblast L929 (ATCC, American Type Culture Collection, Rockville, Md.) cytotoxicity bioassay (Bianchi et al., Journal of Experimental Medicine 183:927-936, 1996) with the minimum detectable concentration of 30 pg/ml. Recombinant mouse TNF was obtained from R&D system Inc., (Minneapolis, Minn.). Murine fibroblast L929 cells (ATCC) were cultured in DMEM (Life Technologies, Grand Island, N.Y.) supplemented with 10% fetal bovine serum (Gemini, Catabasas, Calif.), penicillin (50 units/ml) and streptomycin (50 μg/ml) (Life Technologies) in a humidified incubator with 5% CO2.
The effect of the mutants on TNF release from Murine macrophage-like RAW 264.7 cells (ATCC) was carried out as follows. RAW 264.7 cells were cultured in RPMI 1640 medium (Life Technologies, Grand Island N.Y.) supplemented with 10% fetal bovine serum (Gemini, Catabasas, Calif.), penicillin and streptomycin (Life Technologies). Polymyxin (Sigma, St. Louis, Mo.) was added at 100 units/ml to suppress the activity of any contaminating LPS. Cells were incubated with 1 μg/ml of full length (wild-type) HMGB1 and each HMGB1 mutant protein in Opti-MEM I medium for 8 hours, and conditioned supernatants (containing TNF which had been released from the cells) were collected and TNF released from the cells was measured by a standard murine fibroblast L929 (ATCC) cytotoxicity bioassay (Bianchi et al., supra) with the minimum detectable concentration of 30 pg/ml. Recombinant mouse TNF was obtained from R & D Systems Inc., (Minneapolis, Minn.) and used as control in these experiments. Data in FIG. 1 are all presented as mean+SEM unless otherwise indicated. (N=6-10).
To further examine the effect of HMGB1 B box on cytokine production, varying amounts of HMGB1 B box were evaluated for the effects on TNF, IL-1 B, and IL-6 production in murine macrophage-like RAW 264.7 cells. Conditioned media were harvested and measured for TNF, IL-1β and IL-6 levels. TNF levels were measured as described herein, and IL-1β and IL-6 levels were measured using the mouse IL-1β and IL-6 enzyme-linked immunosorbent assay (ELISA) kits (R&D System Inc., Minneapolis, Minn.) and N>5 for all experiments.
The kinetics of B box-induced TNF release was also examined. TNF release and TNF mRNA expression was measured in RAW 264.7 cells induced by B box polypeptide or GST tag polypeptide only used as a control (vector) (10 μg/ml) for 0 to 48 hours. Supernatants were analyzed for TNF protein levels by an L929 cytotoxicity assay (N=3-5) as described herein. For mRNA measurement, cells were plated in 100 mm plate and treated in Opti-MEM I medium containing B box polypeptide or the vector alone for 0, 4, 8, or 24 hours, as indicated in FIG. 2D. The vector only sample was assayed at the 4 hour time point. Cells were scraped off the plate and total RNA was isolated by RNAzol B method in accordance with the manufacturer's instructions (Tel-Test “B”, Inc., Friendswood, Tex.). TNF (287 bp) was measured by RNase protection assay (Ambion, Austin, Tex.). Equal loading and the integrity of RNA was verified by ethidium bromide staining of the RNA sample on agarose-formaldehyde gel. […] TNF mRNA expression was maximal at 4 hours and decreased at 8 and 24 hours. […] A similar study was carried out measuring TNF protein released from RAW 264.7 cells 0, 4, 8, 24, 32 or 48 hours after administration of B box or vector only (GST tag), using the L929 cytotoxicity assay described herein. […] Data are representative of three separate experiments. […]

| Molecule | TNF release (8 hours) | TNF protein expression compared to medium only (10 μg/ml, 0-48 hours) | time of maximum TNF protein release (10 μg/ml, 0-48 hours) | TNF release, dose dependence (B box 0-10 μg/ml, 8 hours) |
| --- | --- | --- | --- | --- |
| B1 | significantly stimulated TNF release |  |  |  |
| B2 | only weakly activated TNF release |  |  |  |
| B3 | potent activator of monocyte TNF release | stimulated TNF protein expression | ≤ 8 h | increased with increased amounts of B box |

Source: patent US7897569B2, “Use of HMGB fragments as anti-inflammatory agents” (The Feinstein Institute for Medical Research, priority 2001, dated 2011)
